Results reported in IntAct's records for PubMed 22665060.

B1: Tight junction protein 2 (Homo sapiens), Q9UDY2-3 (parent)
chain: MEELIWEQYTVTLQKDSKRGFGIAVSGGRDNPHFENGETSIVISDVLPGGPADGLLQENDRVVMVNGTPMEDVLHSFAVQQLRKSGKVAAIVVKRPRKVQVAALQASPPLDQDDRAFEVMDEFDGRSFRSGYSERSRLNSHGGRSRSWEDSPERGRPHERARSRERDLSRDRSRGRSLERGLDQDHARTRDRSRGRSLERGLDHDFGPSRDRDRDRSRGRSIDQDYERAYHRAYDPDYERAYSPEYRRGARHDARSRGPRSRSREHPHSRSPSPEPRGRPGPIGVLLMKSRANEEYGLRLGSQIFVKEMTRTGLATKDGNLHEGDIILKINGTVTENMSLTDARKLIEKSRGKLQLVVLRDSQQTLINIPSLNDSDSEIEDISEIESNRSFSPEERRHQYSDYDYHSSSEKLKERPSSREDTPSRLSRMGATPTPFKSTGDIAGTVVPETNKEPRYQEDPPAPQPKAAPRTFLRPSPEDEAIYGPNTKMVRFKKGDSVGLRLAGGNDVGIFVAGIQEGTSAEQEGLQEGDQILKVNTQDFRGLVREDAVLYLLEIPKGEMVTILAQSRADVYRDILACGRGDSFFIRSHFECEKETPQSLAFTRGEVFRVVDTLYDGKLGNWLAVRIGNELEKGLIPNKSRAEQMASVQNAQRDNAGDRADFWRMRGQRSGVKKNLRKSREDLTAVVSVSTKFPAYERVLLREAGFKRPVVLFGPIADIAMEKLANELPDWFQTAKTEPKDAGSEKSTGVVRLNTVRQIIEQDKHALLDVTPKAVDLLNYTQWFPIVIFFNPDSRQGVKTMRQRLNPTSNKSSRKLFDQANKLKKTCAHLFTATINLNSANDSWFGSLKDTIQHQQGEAVWVSEGKMEGMDDDPEDRMSYLTAMGADYLSCDSRLISDFEDTDGEGGAYTDNELDEPAEEPLVSSITRSSEPVQHEESIRKPSPEPRAQMRRAASSDQLRDNSPPPAFKPEPPKAKTQNKEESYDFSKSYEYKSNPSAVAGNETPGASTKGYPPPVAAKPTFGRSILKPSTPIPPQEGEEVGESSEEQDNAPKSVLGKVKIFEKMDHKARLQRMQELQEAQNARIEIAQKHPDIYAVPIKTHKPDPGTPQHTSSRPPEPQKAPSRPYQDTRGSYGSDAEEEEYRQQLSEHSKRGYYGQSARYRDTEL
partner: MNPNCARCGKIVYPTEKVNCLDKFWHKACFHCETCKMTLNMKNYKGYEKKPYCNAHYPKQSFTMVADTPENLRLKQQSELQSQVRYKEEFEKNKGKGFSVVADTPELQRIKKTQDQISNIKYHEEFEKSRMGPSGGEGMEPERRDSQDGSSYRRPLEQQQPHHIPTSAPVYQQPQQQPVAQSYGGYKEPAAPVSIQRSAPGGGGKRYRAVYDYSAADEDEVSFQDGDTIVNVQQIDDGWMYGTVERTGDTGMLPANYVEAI

Variants of: B1
Settings: with lasp1_human LASP1, Q14847

| effect of a mutation on the interaction | Variant |
| --- | --- |
| decreasing interaction | P1106A |
| disrupting interaction strength | P1106A;P1116A |
